Results published in the supplement of paper PMC12042874.
± gives the uncertainty stated by the source.

Experiment: amyloid nucleation score (Sup35N fusion, yeast selection) (log enrichment); library NNK3; higher = more nucleation; inactive = no reads after selection
Procedure, shortened: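 For the nucleation score, DiMSum gave the log enrichment of output over input reads, centred on the mode score of non-aggregating sequences. Psi-negative yeast expressing Sup35N fused to peptides of 20 random codons were induced with 100 μM copper sulfate for 24 hours and grown 7 days at 30°C on medium lacking adenine and uracil. Input and output plasmid inserts were Illumina-sequenced, and sequences with under 100 input reads were excluded.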
For MILNINVMYYFMYEGKIVMP, the amyloid nucleation score was 2.7 ± 0.049.
For MINCISNMVISIGSKRTYPS, the amyloid nucleation score was 2.5 ± 0.068.
MIRYSVQ showed an amyloid nucleation score of 0.131 ± 0.24.
With MKFFVNLAYIFFRFFSLRLL the amyloid nucleation score was “inactive”.
Work on MKFRLTSSRQSDEAHFMWLT yielded an amyloid nucleation score of 1.28 ± 0.085.
With MKFVPHYEGVYCL the amyloid nucleation score was “inactive”.
With MKGQLARSSDLSRLDVNCMG the amyloid nucleation score was “inactive”.
In the case of MKTSNYMVRQCAGIPASTNR, the amyloid nucleation score is reported as “inactive”.
For MLARHCQQGGRDHPWLGSVL, the amyloid nucleation score was “inactive”.
In the case of MLLIVTSCYISAPNAVSPGW, the amyloid nucleation score is reported as -0.563 ± 0.84.
In the case of MLNAIGCLSWSQFPESLLLG, the amyloid nucleation score is reported as “inactive”.
With MLNSLFAMNTILKW the amyloid nucleation score was 0.876 ± 0.083.
With MLVATL the amyloid nucleation score was “inactive”.
With MLWCLSVSIDFYGGDNRMLT the amyloid nucleation score was “inactive”.
For MLYFALNLC, the amyloid nucleation score was “inactive”.
Substance MMADDVSLICGCGRQ has an amyloid nucleation score of 1.01 ± 0.19.
MMELQVAQLHTEGDRLKSRR gave an amyloid nucleation score of -0.787 ± 2.4.
For MMGTSWDWRYRYLRLRGEEC, the amyloid nucleation score was “inactive”.
In the case of MMMQLNGVHMV, the amyloid nucleation score is reported as “inactive”.
For MMVIRQYFMVRVEPVHVSSG, the amyloid nucleation score was “inactive”.
For MMVMWD, the amyloid nucleation score was “inactive”.
With MMWDL the amyloid nucleation score was “inactive”.
Substance MNEGQSYYKVVITPELLAAR has an amyloid nucleation score of -0.545 ± 0.96.
For MNFSEH, the amyloid nucleation score was “inactive”.
With MNGNGRFLVERRMLGSKKSV the amyloid nucleation score was “inactive”.
In the case of MNTVGLIDLHSGAPLSINRT, the amyloid nucleation score is reported as “inactive”.
For MPMGGRYSAKAIVLVQKKDW, the amyloid nucleation score was “inactive”.
For MPRSCSDYACAV, the amyloid nucleation score was “inactive”.
Work on MPYSFIMTVTYSLQYTQWSL yielded an amyloid nucleation score of -0.074 ± 0.51.
Substance MQYLIYPTWLVIELNC has an amyloid nucleation score of 0.684 ± 0.13.
MRCGRIDGDFGFAPRLRGTM showed an amyloid nucleation score of 0.902 ± 0.14.
With MRGFFCRIH the amyloid nucleation score was “inactive”.
For MRLMVWESLR, the amyloid nucleation score was 1.6 ± 0.097.
For MRMNVTIRFVMFNTGLRMYG, the amyloid nucleation score was “inactive”.
In the case of MRRGEDCVV, the amyloid nucleation score is reported as “inactive”.
Substance MRRSMAVAMNRSVLYDEC has an amyloid nucleation score of 0.581 ± 0.16.
For MRRVGIWYVRR, the amyloid nucleation score was “inactive”.
In the case of MRTMLVFVRGFKFFLPDLLI, the amyloid nucleation score is reported as “inactive”.
With MRTNTPIFLVLGKIS the amyloid nucleation score was “inactive”.
In the case of MRVKGLIRWWETGCEKKSTA, the amyloid nucleation score is reported as “inactive”.
With MRYGKLDLSRVYLQCDRLGR the amyloid nucleation score was “inactive”.
With MRYINEKCVT the amyloid nucleation score was “inactive”.
For MSEKASSEVKINRDAGLGAF, the amyloid nucleation score was “inactive”.
In the case of MSFEYSPQGSILYGPSRNIY, the amyloid nucleation score is reported as “inactive”.
For MSFMTDLNPTFLFMLIG, the amyloid nucleation score was “inactive”.
Work on MSGSRWRSTNFTCNNLWFDR yielded an amyloid nucleation score of -1.07 ± 1.1.
For MSGVDYLTRLFVYTNESDAV, the amyloid nucleation score was “inactive”.
With MSICFDPWTRPKCGVYCRCS the amyloid nucleation score was “inactive”.
For MSNMWKEYALALVVGLSFRL, the amyloid nucleation score was “inactive”.
For MSRGGYWSKVR, the amyloid nucleation score was “inactive”.
With MSSSSAFD the amyloid nucleation score was “inactive”.
In the case of MSTVRHVRWRQGQGKMRGRK, the amyloid nucleation score is reported as “inactive”.
For MTAGEIDRLLYVS, the amyloid nucleation score was “inactive”.
In the case of MTCSQSECARVIVSRCHVWP, the amyloid nucleation score is reported as “inactive”.
In the case of MTESNGGFPG, the amyloid nucleation score is reported as “inactive”.
With MTSITVDYDNLDYRIAMITW the amyloid nucleation score was “inactive”.
For MVCLDWVPSNVMTLGS, the amyloid nucleation score was “inactive”.
For MVCWANKHWYSSHLLYDSVY, the amyloid nucleation score was “inactive”.
Substance MVGFLDTFSRIAVRCSIDRW has an amyloid nucleation score of -0.344 ± 1.
With MVIAPGEKTNNLSSAHRWSN the amyloid nucleation score was “inactive”.
Substance MVIGNVCFIIYGSFNEE has an amyloid nucleation score of 2.33 ± 0.089.
For MVLKLNESSMIFKDTTYP, the amyloid nucleation score was “inactive”.
For MVLPLSYKQSCFQLCKFLDN, the amyloid nucleation score was “inactive”.
In the case of MVMPGMFGSLRREWHSFFRM, the amyloid nucleation score is reported as “inactive”.
MVMQIYIDDRPSMKVLYSEM gave an amyloid nucleation score of 0.485 ± 0.21.
